In article PMC9482650, “Quantitative fragmentomics allow affinity mapping of interactomes” (Nature Communications, 2022):
Residue numbers refer to the chain shown, from its start.

Key:
Assay in all cases: holdup assay
Parameters in all cases: key: below the threshold = too weak to quantify, mostly under pKd 3.1 to 4
AHNAK1, Q09666 = target: AHNAK1, Q09666
APBA1_2, Q02410 = target: T1, APBA1_2, Q02410
T1 sequence (Q02410 742-832, limits assumed, looked up): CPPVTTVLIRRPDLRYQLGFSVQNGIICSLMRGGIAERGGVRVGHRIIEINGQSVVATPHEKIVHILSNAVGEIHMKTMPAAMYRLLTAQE

DLG1_1, Q12959 = target: DLG1_1, Q12959
DLG2_2, Q15700 = target: DLG2_2, Q15700
DLG2_2, Q15700, sequence (Q15700 189-283): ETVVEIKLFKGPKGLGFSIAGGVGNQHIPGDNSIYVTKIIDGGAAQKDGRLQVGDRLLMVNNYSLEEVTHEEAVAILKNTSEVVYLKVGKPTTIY

DLG3_1, Q92796 = target: T2, DLG3_1, Q92796
T2 sequence (Q92796 125-227, limits assumed, looked up): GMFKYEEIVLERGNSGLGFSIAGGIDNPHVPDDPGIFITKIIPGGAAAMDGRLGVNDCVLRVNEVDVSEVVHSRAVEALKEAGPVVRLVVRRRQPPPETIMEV

DLG4_2, P78352 = target: DLG4_2, P78352
DLG4_2, P78352, sequence (P78352 155-259): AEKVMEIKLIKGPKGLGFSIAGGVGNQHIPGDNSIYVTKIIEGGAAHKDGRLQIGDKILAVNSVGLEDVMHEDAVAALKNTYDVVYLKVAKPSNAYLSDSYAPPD

GORASP1, Q9BQQ3 = target: GORASP1, Q9BQQ3
GORASP1, Q9BQQ3, sequence (Q9BQQ3 1-208): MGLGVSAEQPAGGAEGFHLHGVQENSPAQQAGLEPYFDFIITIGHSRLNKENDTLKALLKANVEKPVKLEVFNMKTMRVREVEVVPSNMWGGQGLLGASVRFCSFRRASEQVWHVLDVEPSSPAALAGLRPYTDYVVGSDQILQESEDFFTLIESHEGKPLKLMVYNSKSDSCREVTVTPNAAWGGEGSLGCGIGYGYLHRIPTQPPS

GRIP1_5, Q9Y3R0 = target: T3, GRIP1_5, Q9Y3R0
T3 sequence (Q9Y3R0 568-668, limits assumed, looked up): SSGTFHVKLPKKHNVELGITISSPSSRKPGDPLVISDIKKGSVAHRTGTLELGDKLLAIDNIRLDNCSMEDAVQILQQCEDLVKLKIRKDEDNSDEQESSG

GRIP2_3, Q9C0E4 = target: GRIP2_3, Q9C0E4
GRIP2_3, Q9C0E4, sequence (Q9C0E4 238-339): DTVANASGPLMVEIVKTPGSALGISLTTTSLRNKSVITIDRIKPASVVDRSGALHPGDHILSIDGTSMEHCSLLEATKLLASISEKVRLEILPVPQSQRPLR

HTRA2, O43464 = target: HTRA2, O43464
HTRA2, O43464, sequence (O43464 355-458): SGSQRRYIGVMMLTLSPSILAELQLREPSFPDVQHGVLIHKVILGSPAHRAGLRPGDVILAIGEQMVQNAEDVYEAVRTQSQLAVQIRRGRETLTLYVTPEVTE

Inadl_1, Q8NI35 = target: Inadl_1, Q8NI35
Inadl_1, Q8NI35, sequence (Q8NI35 113-229): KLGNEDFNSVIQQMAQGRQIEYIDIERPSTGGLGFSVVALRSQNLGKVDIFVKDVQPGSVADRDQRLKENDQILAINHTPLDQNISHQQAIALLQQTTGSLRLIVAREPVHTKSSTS

Inadl_2, Q8NI35 = target: Inadl_2, Q8NI35
Inadl_2, Q8NI35, sequence (Q8NI35 238-335): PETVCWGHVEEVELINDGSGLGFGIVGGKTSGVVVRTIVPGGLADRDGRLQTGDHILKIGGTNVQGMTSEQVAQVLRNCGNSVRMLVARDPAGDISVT

Inadl_9, Q8NI35 = target: Inadl_9, Q8NI35
Inadl_9, Q8NI35, sequence (Q8NI35 1530-1615): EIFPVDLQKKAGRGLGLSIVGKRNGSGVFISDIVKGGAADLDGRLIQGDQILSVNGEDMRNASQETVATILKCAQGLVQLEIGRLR

LIN7A, O14910 = target: T4, LIN7A, O14910
T4 sequence (O14910 103-200, limits assumed, looked up): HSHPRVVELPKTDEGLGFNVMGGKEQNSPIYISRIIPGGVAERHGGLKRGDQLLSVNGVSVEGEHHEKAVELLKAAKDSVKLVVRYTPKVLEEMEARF

LIN7C, Q9NUP9 = target: T5, LIN7C, Q9NUP9
T5 sequence (Q9NUP9 88-185, limits assumed, looked up): T4 sequence (O14910 103-200, limits assumed, looked up) with D13E, V20I, V40I, E42D, K77Q, D78G, S79K, A96S

MAGI1_1, Q96QZ7 = target: MAGI1_1, Q96QZ7
MAGI1_1, Q96QZ7, sequence (Q96QZ7 1-106): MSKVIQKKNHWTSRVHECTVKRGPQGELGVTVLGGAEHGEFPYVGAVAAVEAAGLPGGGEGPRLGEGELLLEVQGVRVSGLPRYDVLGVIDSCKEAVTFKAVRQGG

MAGI1_2, Q96QZ7 = target: MAGI1_2, Q96QZ7
MAGI1_2, Q96QZ7, sequence (Q96QZ7 456-580): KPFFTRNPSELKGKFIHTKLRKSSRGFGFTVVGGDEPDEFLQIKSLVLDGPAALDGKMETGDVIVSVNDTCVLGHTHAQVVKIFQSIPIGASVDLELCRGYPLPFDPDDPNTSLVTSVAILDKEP

MAGI2_5, Q86UL8 = target: MAGI2_5, Q86UL8
MAGI2_5, Q86UL8, sequence (Q86UL8 915-1017): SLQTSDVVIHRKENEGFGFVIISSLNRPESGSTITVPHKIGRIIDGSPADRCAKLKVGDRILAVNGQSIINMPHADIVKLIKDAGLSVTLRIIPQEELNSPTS

MAST1, Q9Y2H9 = target: MAST1, Q9Y2H9
MAST1, Q9Y2H9, sequence (Q9Y2H9 962-1065): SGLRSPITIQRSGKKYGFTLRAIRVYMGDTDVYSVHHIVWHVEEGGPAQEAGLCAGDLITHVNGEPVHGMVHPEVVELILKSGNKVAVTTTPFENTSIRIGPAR

NHERF2_2, Q15599 = target: NHERF2_2, Q15599
NHERF2_2, Q15599, sequence (Q15599 142-238): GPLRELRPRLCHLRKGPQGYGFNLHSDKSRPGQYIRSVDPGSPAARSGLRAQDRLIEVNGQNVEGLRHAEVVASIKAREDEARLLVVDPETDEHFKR

PARD3B_1, Q8TEW8 = target: T6, PARD3B_1, Q8TEW8
T6 sequence (Q8TEW8 196-299, limits assumed, looked up): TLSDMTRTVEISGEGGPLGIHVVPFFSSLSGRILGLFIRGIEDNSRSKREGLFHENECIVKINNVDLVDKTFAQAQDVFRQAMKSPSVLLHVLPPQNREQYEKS

PARD3_3, Q8TEW0 = target: PARD3_3, Q8TEW0
PARD3_3, Q8TEW0, sequence (Q8TEW0 582-685): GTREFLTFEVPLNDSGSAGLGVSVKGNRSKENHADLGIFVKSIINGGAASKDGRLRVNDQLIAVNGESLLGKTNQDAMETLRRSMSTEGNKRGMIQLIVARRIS

PTPN3, P26045 = target: PTPN3, P26045
PTPN3, P26045, sequence (P26045 505-587): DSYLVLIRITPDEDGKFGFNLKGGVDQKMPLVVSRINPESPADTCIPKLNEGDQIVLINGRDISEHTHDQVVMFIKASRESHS

RADIL, Q96JH8 = target: T7, RADIL, Q96JH8
T7 sequence (Q96JH8 971-1071, limits assumed, looked up): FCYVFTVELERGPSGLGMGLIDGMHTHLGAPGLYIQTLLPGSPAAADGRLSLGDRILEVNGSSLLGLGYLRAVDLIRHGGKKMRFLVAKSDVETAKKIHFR

SHANK1, Q9Y566 = target: T8, SHANK1, Q9Y566
T8 sequence (Q9Y566 658-767, limits assumed, looked up): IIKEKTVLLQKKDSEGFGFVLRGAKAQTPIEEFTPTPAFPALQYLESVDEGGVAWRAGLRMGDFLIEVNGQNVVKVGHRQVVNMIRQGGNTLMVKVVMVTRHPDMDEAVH

SYNJ2BP, P57105 = target: T9, SYNJ2BP, P57105
T9 sequence (P57105 8-110, limits assumed, looked up): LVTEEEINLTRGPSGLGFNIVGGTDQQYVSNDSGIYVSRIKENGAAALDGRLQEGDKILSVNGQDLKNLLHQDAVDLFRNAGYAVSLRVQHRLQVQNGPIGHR

TJP3_3, O95049 = target: T10, TJP3_3, O95049
T10 sequence (O95049 375-456, limits assumed, looked up): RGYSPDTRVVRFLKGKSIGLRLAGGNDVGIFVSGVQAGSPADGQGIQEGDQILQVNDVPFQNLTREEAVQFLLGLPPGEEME

[1] = plain residues with an end cap or a label only (N-terminal biotin on a linker: ado-ado)
[2] = plain residues with an end cap or a label only (N-terminal biotin on a linker: (peg)3)

AHNAK1, Q09666, sequence (Q09666 4-100): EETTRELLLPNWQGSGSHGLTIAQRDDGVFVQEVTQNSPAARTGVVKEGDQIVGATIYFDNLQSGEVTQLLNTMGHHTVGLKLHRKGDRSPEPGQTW

B1: TRIP6, Q15654 (peptide)
chain: ELSATVTTDC
pKd (AHNAK1, Q09666; [1]): below the threshold | pKd (APBA1_2, Q02410; [1]): below the threshold | pKd (DLG1_1, Q12959; [1]): below the threshold | pKd (DLG2_2, Q15700; [1]): 3.59 | pKd (DLG3_1, Q92796; [1]): below the threshold | pKd (DLG4_2, P78352; [1]): 3.91 | pKd (GORASP1, Q9BQQ3; [1]): below the threshold | pKd (GRIP1_5, Q9Y3R0; [1]): below the threshold | pKd (GRIP2_3, Q9C0E4; [1]): below the threshold | pKd (HTRA2, O43464; [1]): below the threshold | pKd (Inadl_1, Q8NI35; [1]): below the threshold | pKd (Inadl_2, Q8NI35; [1]): below the threshold | pKd (Inadl_9, Q8NI35; [1]): below the threshold | pKd (LIN7A, O14910; [1]): below the threshold | pKd (LIN7C, Q9NUP9; [1]): below the threshold | pKd (MAGI1_1, Q96QZ7; [1]): 3.82 | pKd (MAGI1_2, Q96QZ7; [1]): below the threshold | pKd (MAGI2_5, Q86UL8; [1]): below the threshold | pKd (MAST1, Q9Y2H9; [1]): 3.63 | pKd (NHERF2_2, Q15599; [1]): 3.83 | pKd (PARD3B_1, Q8TEW8; [1]): below the threshold | pKd (PARD3_3, Q8TEW0; [1]): below the threshold | pKd (PTPN3, P26045; [1]): 4.31 | pKd (RADIL, Q96JH8; [1]): 3.52 | pKd (SHANK1, Q9Y566; [1]): 3.63 | pKd (SYNJ2BP, P57105; [1]): 4.68 | pKd (TJP3_3, O95049; [1]): below the threshold

B2: KCNA7, Q96RP8 (peptide)
chain: PPGKHLVTEV
pKd (AHNAK1, Q09666; [1]): below the threshold | pKd (APBA1_2, Q02410; [1]): 4.17 | pKd (DLG1_1, Q12959; [1]): 4.76 | pKd (DLG2_2, Q15700; [1]): 5.01 | pKd (DLG3_1, Q92796; [1]): 4.21 | pKd (DLG4_2, P78352; [1]): 5.11 | pKd (GORASP1, Q9BQQ3; [1]): below the threshold | pKd (GRIP1_5, Q9Y3R0; [1]): below the threshold | pKd (GRIP2_3, Q9C0E4; [1]): below the threshold | pKd (HTRA2, O43464; [1]): below the threshold | pKd (Inadl_1, Q8NI35; [1]): below the threshold | pKd (Inadl_2, Q8NI35; [1]): below the threshold | pKd (Inadl_9, Q8NI35; [1]): below the threshold | pKd (LIN7A, O14910; [1]): below the threshold | pKd (LIN7C, Q9NUP9; [1]): below the threshold | pKd (MAGI1_1, Q96QZ7; [1]): below the threshold | pKd (MAGI1_2, Q96QZ7; [1]): 4.24 | pKd (MAGI2_5, Q86UL8; [1]): 4.73 | pKd (MAST1, Q9Y2H9; [1]): 4.58 | pKd (NHERF2_2, Q15599; [1]): below the threshold | pKd (PARD3B_1, Q8TEW8; [1]): below the threshold | pKd (PARD3_3, Q8TEW0; [1]): below the threshold | pKd (PTPN3, P26045; [1]): 4.74 | pKd (RADIL, Q96JH8; [1]): 4.52 | pKd (SHANK1, Q9Y566; [1]): 3.71 | pKd (SYNJ2BP, P57105; [1]): 4.86 | pKd (TJP3_3, O95049; [1]): below the threshold

B3: PLEKHA1, Q9HB21 (peptide)
chain: DDASLPVSDV
pKd (AHNAK1, Q09666; [1]): below the threshold | pKd (APBA1_2, Q02410; [1]): 3.89 | pKd (DLG1_1, Q12959; [1]): below the threshold | pKd (DLG2_2, Q15700; [1]): below the threshold | pKd (DLG3_1, Q92796; [1]): below the threshold | pKd (DLG4_2, P78352; [1]): below the threshold | pKd (GORASP1, Q9BQQ3; [1]): below the threshold | pKd (GRIP1_5, Q9Y3R0; [1]): below the threshold | pKd (GRIP2_3, Q9C0E4; [1]): below the threshold | pKd (HTRA2, O43464; [1]): below the threshold | pKd (Inadl_1, Q8NI35; [1]): below the threshold | pKd (Inadl_2, Q8NI35; [1]): below the threshold | pKd (Inadl_9, Q8NI35; [1]): 3.59 | pKd (LIN7A, O14910; [1]): below the threshold | pKd (LIN7C, Q9NUP9; [1]): 4.01 | pKd (MAGI1_1, Q96QZ7; [1]): below the threshold | pKd (MAGI1_2, Q96QZ7; [1]): below the threshold | pKd (MAGI2_5, Q86UL8; [1]): below the threshold | pKd (MAST1, Q9Y2H9; [1]): 3.96 | pKd (NHERF2_2, Q15599; [1]): below the threshold | pKd (PARD3B_1, Q8TEW8; [1]): below the threshold | pKd (PARD3_3, Q8TEW0; [1]): below the threshold | pKd (PTPN3, P26045; [1]): 3.58 | pKd (RADIL, Q96JH8; [1]): 3.59 | pKd (SHANK1, Q9Y566; [1]): below the threshold | pKd (SYNJ2BP, P57105; [1]): 3.59 | pKd (TJP3_3, O95049; [1]): below the threshold

B4: SARS-Cov2-N, P0DTC9 (peptide)
chain: QQSMSSADSTQA
pKd (AHNAK1, Q09666; [2]): below the threshold | pKd (APBA1_2, Q02410; [2]): below the threshold | pKd (DLG1_1, Q12959; [2]): below the threshold | pKd (DLG2_2, Q15700; [2]): below the threshold | pKd (DLG3_1, Q92796; [2]): below the threshold | pKd (DLG4_2, P78352; [2]): below the threshold | pKd (GORASP1, Q9BQQ3; [2]): below the threshold | pKd (GRIP1_5, Q9Y3R0; [2]): below the threshold | pKd (GRIP2_3, Q9C0E4; [2]): below the threshold | pKd (HTRA2, O43464; [2]): below the threshold | pKd (Inadl_1, Q8NI35; [2]): below the threshold | pKd (Inadl_2, Q8NI35; [2]): below the threshold | pKd (Inadl_9, Q8NI35; [2]): below the threshold | pKd (LIN7A, O14910; [2]): below the threshold | pKd (LIN7C, Q9NUP9; [2]): below the threshold | pKd (MAGI1_1, Q96QZ7; [2]): below the threshold | pKd (MAGI1_2, Q96QZ7; [2]): below the threshold | pKd (MAGI2_5, Q86UL8; [2]): below the threshold | pKd (MAST1, Q9Y2H9; [2]): below the threshold | pKd (NHERF2_2, Q15599; [2]): below the threshold | pKd (PARD3B_1, Q8TEW8; [2]): below the threshold | pKd (PARD3_3, Q8TEW0; [2]): below the threshold | pKd (PTPN3, P26045; [2]): below the threshold | pKd (RADIL, Q96JH8; [2]): below the threshold | pKd (SHANK1, Q9Y566; [2]): below the threshold | pKd (SYNJ2BP, P57105; [2]): below the threshold | pKd (TJP3_3, O95049; [2]): below the threshold

B5: SLC22A9, Q8IVM8 (peptide)
chain: EDPRVEVTQF
pKd (AHNAK1, Q09666; [1]): below the threshold | pKd (APBA1_2, Q02410; [1]): below the threshold | pKd (DLG1_1, Q12959; [1]): below the threshold | pKd (DLG2_2, Q15700; [1]): below the threshold | pKd (DLG3_1, Q92796; [1]): below the threshold | pKd (DLG4_2, P78352; [1]): below the threshold | pKd (GORASP1, Q9BQQ3; [1]): below the threshold | pKd (GRIP1_5, Q9Y3R0; [1]): below the threshold | pKd (GRIP2_3, Q9C0E4; [1]): below the threshold | pKd (HTRA2, O43464; [1]): below the threshold | pKd (Inadl_1, Q8NI35; [1]): below the threshold | pKd (Inadl_2, Q8NI35; [1]): below the threshold | pKd (Inadl_9, Q8NI35; [1]): below the threshold | pKd (LIN7A, O14910; [1]): below the threshold | pKd (LIN7C, Q9NUP9; [1]): below the threshold | pKd (MAGI1_1, Q96QZ7; [1]): below the threshold | pKd (MAGI1_2, Q96QZ7; [1]): below the threshold | pKd (MAGI2_5, Q86UL8; [1]): 4.86 | pKd (MAST1, Q9Y2H9; [1]): 4.75 | pKd (NHERF2_2, Q15599; [1]): 4.61 | pKd (PARD3B_1, Q8TEW8; [1]): 4.26 | pKd (PARD3_3, Q8TEW0; [1]): below the threshold | pKd (PTPN3, P26045; [1]): 4.18 | pKd (RADIL, Q96JH8; [1]): below the threshold | pKd (SHANK1, Q9Y566; [1]): 5.36 | pKd (SYNJ2BP, P57105; [1]): below the threshold | pKd (TJP3_3, O95049; [1]): below the threshold
